Results from article PMC5392032 (Science Advances, 2017).

Target: the molecule itself
Test: SEC-MALS

B1: Vps4^E233Q (ATP hydrolysis-deficient mutant of Saccharomyces cerevisiae vacuolar protein sorting-associated protein 4) (enzyme)
chain: KKSPSAGSGSNGGNKKISQEEGEDNGGEDNKKLRGALSSAILSEKPNVKWEDVAGLEGAKEALKEAVILPVKFPHLFKGNRKPTSGILLYGPPGTGKSYLAKAVATEANSTFFSVSSSDLVSKWMGESEKLVKQLFAMARENKPSIIFIDQVDALTGTRGEGESEASRRIKTELLVQMNGVGNDSQGVLVLGATNIPWQLDSAIRRRFERRIYIPLPDLAARTTMFEINVGDTPCVLTKEDYRTLGAMTEGYSGSDIAVVVKDALMQPIRKIQSATHFKDVSTEDDETRKLTPCSPGDDGAIEMSWTDIEADELKEPDLTIKDFLKAIKSTRPTVNEDDLLKQEQFTRDFGQEGN
stoichiometry N: 6
